Test results: the RNAGym collection of RNA variant scans (doi:10.7554/elife.90254)

B1: OR4K15 (parent)
chain: GUUAACGGUCAUAGGCCAUGGAAACUAGGAGCACCAUUUCGCUGCCAGUGAAGAAAUGAACAAAGAAAAUCUGGGCCAGGCAGGCAUCAAAAGAAAUAGUCUUGCGCUCAACCAGAAAGUCUGUAAUCAUUUUAAGGGUA

Variants of: B1
Assay: self-cleavage, relative activity (ratio to wild type); higher = more cleavage; in vitro, sequencing; the parent is a self-cleaving ribozyme
For GUUAACGGUCAUAGGCCAUGGAAACUGGGAGCACCAUUUCGCUGCCAGUGAAGAAAUGAACAAAGAAAAUCUGGGCCAGGCAGGCAUCAAAAGAAAUAGUCUUGCGCUCAACCAGAAAGUCCGUAAUCAUUUUAAGGGUA [A27G U122C], the self-cleavage was 1.45. GUUAACGGUCAUAGGCCAUGGAAACUAGGAGCACCAUUUCGCUGCCAGUGAAGAAAUGAACAAAGAAAAUCUGGGCCAGGCAGGCAUCAAAAGAAAUAAUCUUGCGCUCAACCAGAAAGUCUGUAAUCAUUUUGAGGGUA [G99A A134G] gave a self-cleavage of 0.6. For GUUAACGGUCAUAGGCCAUGGAAACUGGGAGCACCAUUUCGCUGCCAGUGAACAAAUGAACAAAGAAAAUCUGGGCCAGGCAGGCAUCAAAAGAAAUAGUCUUGCGCUCAACCAGAAAGUCUGUAAUCAUUUUAAGGGUA [A27G G53C], the self-cleavage was 1.59. For GUUAACGGUCAUAGGCCAUGGAAACUAGGAGCACCAUUUCGCUGCCAGUGAAGAAAUGAACAAAGAAAAUCUGGGCCAGGCAGGCAUCAAAAGAAAUAGUCUUGCGCUCAACCAAAAAGUCUGUAAUCAUUUUGAGGGUA [G115A A134G], the self-cleavage was 0.12. In the case of GUUAACGGUCAUAGGCCAUGGAAACUAGGAGCACCAUUUCGCUGCCAGUGAAGAAAUGAACAAAGAAAAUCUGGGCCAAGCAGGCAUCAAAAGAAAUAGUCUUGCGCUCAACCAGAAAGUCUGUAAUCAUUUUAAGGGUA [G79A], the self-cleavage is reported as 0.14. GUUAACGGUCAUAGGCCAUGGAAACUAGGAGCACCAUUUCGCUGCCAGUGAAGAAAUGAACAAAGGAAACCUGGGCCAGGCAGGCAUCAAAAGAAAUAGUCUUGCGCUCAACCAGAAAGUCUGUAAUCAUUUUAAGGGUA [A66G U70C] showed a self-cleavage of 0.75. For GUUAACGGUCAUAGGCCAUGGAAACUAGGAGCACCAUUUCGCUGCCAGUGAAGAAAUGAACAAAGAAAAUCUGGGCCAGGCAGGCAUCAAAAGAAAUAGUCUUGCGCUCAACCAGGAAGUCUGUAAUCAUUUUAAGGAUA [A116G G138A], the self-cleavage was 0.8. With GUUAACGGUCAUAGGCCAUGGAAACUAGGAGCACCAUUUCGCUGCCAGUGAAGAAAUGAACAAAGAAAAUCUGGGCCAGGCAGGCAUCAAAAGAAAUAGUCUUGCGCUCAACCAGAAAGUCUGUAAUAAUUUUAAGGGCA [C128A U139C] the self-cleavage was 1.05. Work on GCUAACGGUCACAGGCCAUGGAAACUAGGAGCACCAUUUCGCUGCCAGUGAAGAAAUGAACAAAGAAAAUCUGGGCCAGGCAGGCAUCAAAAGAAAUAGUCUUGCGCUCAACCAGAAAGUCUGUAAUCAUUUUAAGGGUA [U2C U12C] yielded a self-cleavage of 0.74. Work on GUUAACGGUCCUAGGCCAUGGAAACUAGGAGCACCAUUUCGCUGCCAGUGAAGAAAUGAACAAAGAAAAUCCGGGCCAGGCAGGCAUCAAAAGAAAUAGUCUUGCGCUCAACCAGAAAGUCUGUAAUCAUUUUAAGGGUA [A11C U72C] yielded a self-cleavage of 0.13. Variant GUUAACGGUCAUAGGCCAUGGAAACUAGGAGCGCCAUUUCGCUGCCAGUGAAGAAAUGAACAAAGAAAAUCUGGGCCAGGCAGGCAUCAGAAGAAAUAGUCUUGCGCUCAACCAGAAAGUCUGUAAUCAUUUUAAGGGUA [A33G A90G] has a self-cleavage of 0.46. GUUAACGGUCAUAGGCCAUGGAAACUAGGAGCGCCAUUUCGCUGCCAGUGAAGAAAUAAACAAAGAAAAUCUGGGCCAGGCAGGCAUCAAAAGAAAUAGUCUUGCGCUCAACCAGAAAGUCUGUAAUCAUUUUAAGGGUA [A33G G58A] showed a self-cleavage of 0.55. In the case of GUUAACGGUCAUAGGCCAUGGAAACAAGGAGCACCAUUUCGCUGCCAGUGAAGAAAUGUACAAAGAAAAUCUGGGCCAGGCAGGCAUCAAAAGAAAUAGUCUUGCGCUCAACCAGAAAGUCUGUAAUCAUUUUAAGGGUA [U26A A59U], the self-cleavage is reported as 1.22. In the case of GUUAACGGUCAUAGGCCAUGGAAACUAGGAGCACCAUUUCGCUGCCAGUGAAGAAAUGAACAAAGAAAAUCUGGGCCAGGCAGGCAUCAAAAGAAAUAGUCCUGCGCUCAACCAGAGAGUCUGUAAUCAUUUUAAGGGUA [U102C A117G], the self-cleavage is reported as 2.72. GUUAUCGGUCAUAGGCCAUGGAAACUAGGAGCACCAUUUCGCUGCCAGUGAAGAAAUGAACAAAGAAAAUCUGGGCCAGGCAGGCAUCGAAAGAAAUAGUCUUGCGCUCAACCAGAAAGUCUGUAAUCAUUUUAAGGGUA [A5U A89G] showed a self-cleavage of 1.15. With GUUAACGGUCAUAGGCCAUGGAAACUAGGAGCACCAUUUCGCUGCCAGUGAAGAAAUGAACAAAGAAGAUCUGGGCCAGGCAGGCAUCAAAAGAAAUAGUCUUGCGCUCAACCAGAAAGGCUGUAAUCAUUUUAAGGGUA [A68G U120G] the self-cleavage was 1.02. Work on GUUAACGGUCAUAGGCCAUGGAAACUAGGAGCACCAUUUCGCUGCCAGUGAAGAAAUGAACAAAGAAAAUCUGGGCCAGGCAGGCAUCAAAAGAAAUAGUCUUGCGCUCAACCAGGAAGUCUGUAAUCAUUUUAAGGGUC [A116G A140C] yielded a self-cleavage of 0.63. With GUUAACGGUCAUAGGCCAUGGAAACUAGGAGCACCAUUUCGCUGCCAGCGAAGAAGUGAACAAAGAAAAUCUGGGCCAGGCAGGCAUCAAAAGAAAUAGUCUUGCGCUCAACCAGAAAGUCUGUAAUCAUUUUAAGGGUA [U49C A56G] the self-cleavage was 1.57. In the case of GUUAACGGUCAUAGGCCAUGGAAACUAGGAGCACCAUUUCGCUGCCAGUGAAGAAAUGAACAAAGAAAAUCUGGGCCAGGCAGGCAUCAAAGGAAAUAGUCUUGCGCUCAACCAGAAAGUCUGUAAUCAUUUUGAGGGUA [A92G A134G], the self-cleavage is reported as 0.98. Work on GUUAACGGUCAUUGGCCAUGGAAACUAGGAGCACCAUUUCGCUGCCAGUGAAGAAAUGAACAAAGAAAAUCUGGGCCAGGCAGGCAUCAAAAGAAAUAGUCCUGCGCUCAACCAGAAAGUCUGUAAUCAUUUUAAGGGUA [A13U U102C] yielded a self-cleavage of 1.56. GUUAACGGUCAUAGGCCAUGGAAACUAGGAGCACCAUUUCGCUGCCAGAGAAGAAAUGAACAAAGAGAAUCUGGGCCAGGCAGGCAUCAAAAGAAAUAGUCUUGCGCUCAACCAGAAAGUCUGUAAUCAUUUUAAGGGUA [U49A A67G] gave a self-cleavage of 1.13. GUUAACGGUCAUAGGCCAUGGAAACUAGGAGCACCAUUUCGCUGCCAGUGAAGAAAUGAACAAAGAAGAUCUGGGCCAGGCAGGCAUCAAAAGAAAUAGUCUUGCGCUCAACCCGAAAGUCUGUAAUCAUUUUAAGGGUA [A68G A114C] gave a self-cleavage of 0.04. GUUAACGGUCAUAGGCCAUGGAAACUAGGAGCACCAUUUCGCUGCCAGUGAAGAAAUGAACAAAGAAAAUCUGAGCCAGGCAGGCAUCAAAAGAAAUAGUCUUGCGCUCAACCAGAAGGUCUGUAAUCAUUUUAAGGGUA [G74A A118G] showed a self-cleavage of 0.14. For GUUAACGGUCAUAGGCCAUGGAAACUAGGAGCACCAUUUCGCUGCCAGUGAAGAGAUGAACAAAGAAAAUCUGGGCCAGGCAGGCAUCAAAAGAAAUAGUCUUGCGCUCAACCAGAAAGUCUGUAAUCAUUUUGAGGGUA [A55G A134G], the self-cleavage was 1.23. GUUAACGGUCAUAGGCCAUGGAAGCUAGGAGCACCAUUUCGCUGCCAGGGAAGAAAUGAACAAAGAAAAUCUGGGCCAGGCAGGCAUCAAAAGAAAUAGUCUUGCGCUCAACCAGAAAGUCUGUAAUCAUUUUAAGGGUA [A24G U49G] showed a self-cleavage of 0.9. With GUUAACGGUCAUAGGCCAUGGAAACUAGGAGCACCAUUUCGCUGCCAGUGAAGAAUUGGACAAAGAAAAUCUGGGCCAGGCAGGCAUCAAAAGAAAUAGUCUUGCGCUCAACCAGAAAGUCUGUAAUCAUUUUAAGGGUA [A56U A59G] the self-cleavage was 1.62. GUUAACGGUCAUAGGCCAUGGAAACUAGGAGCACCAUUUCGCUGCCAGUGAAGAAAUGAACAAAGAAAAUCUGGGCCAGGCAGGCAUCAAAAGAAAUAGUCUUGCGCACGACCAGAAAGUCUGUAAUCAUUUUAAGGGUA [U108A A110G] showed a self-cleavage of 0.01. In the case of GUUAACGGUCAUAGGCCAUGGAAACUAGGAGCACCAUUUCGCUGCCAGUGAAGAAAUGAACAAAGAAAAUCUGGGCCAGGCAGGCAUCAAAAGAAAUAGUCUUGCGCUCAACCAGAAAGUCUGUUAUCAUUUUAAGGGUG [A125U A140G], the self-cleavage is reported as 1.42. GUUAACGGUCAUAGGCCAUGGAAACUAGGAGCACCAUUUCGCUGCCAGUGAAGAAAUGAACAAAGAAAGUCUGGGCCAGGCAGGCAUCAAAAGAAAUAGUCUUGCGCUCAACCAGAAAGUCUGUAAUCAUCUUAAGGGUA [A69G U131C] showed a self-cleavage of 0.55. Variant GUUAACGGUCUUAGGCCAUGGAAACUAGGAGCACCAUUUCGCUGCCAGUGAAGAAAUGAACAAAGAAAAUCUGGGCCAGGCAGGCAUCAAAAGAAAUAGUCUUGCGCUCAACCAGAAAGUCUGUAAUCAUUUCAAGGGUA [A11U U133C] has a self-cleavage of 1.36. Work on GUUAACGGUCAUAGGCCAUGAAAACUAGGAGCACCAUUUCGCUGCCAGUGAAGAAAUGAACAAUGAAAAUCUGGGCCAGGCAGGCAUCAAAAGAAAUAGUCUUGCGCUCAACCAGAAAGUCUGUAAUCAUUUUAAGGGUA [G21A A64U] yielded a self-cleavage of 1.5. Variant GUUAACAGUCAUAGGCCAUGGAAACUAGGAGCACCAUUUCGCUGCCAGUGAAGAAAUGAACAAAGAAAAUCUGGGCCAGGCAGGCAUCAAAAGAAAUAGUCUUGCGCUCCACCAGAAAGUCUGUAAUCAUUUUAAGGGUA [G7A A110C] has a self-cleavage of 0.23. Variant GUUAACGGUCAUAGGCCAUGGAAACUAGGAGCACCAUUUCGCUGCCAGUGAAGAAAUGAACAAAGAAAAUCUGGGCCAGACAGGCAUCAAAAGAAAUAGUCUUGCGCUCAACCAGAAAGUCUGUAAUCUUUUUAAGGGUA [G80A A129U] has a self-cleavage of 0.02. Work on GUUAACGGUCAUAGGCCAUGGAAACUAGGAGCACCAUUUCGCUGCCUGUGAAGAAAUGAGCAAAGAAAAUCUGGGCCAGGCAGGCAUCAAAAGAAAUAGUCUUGCGCUCAACCAGAAAGUCUGUAAUCAUUUUAAGGGUA [A47U A60G] yielded a self-cleavage of 0.42. In the case of GUUAACGGUCAUAGGCCAUGGAAACUAGGAGCACCAUUUCGCUGCCAGUGAAGAAAUGAACAAGGAAAAUCUGGGCCAGGCGGGCAUCAAAAGAAAUAGUCUUGCGCUCAACCAGAAAGUCUGUAAUCAUUUUAAGGGUA [A64G A82G], the self-cleavage is reported as 0.35. For GUUAACGGUCAUAGGCCAUGGAAACUAGGAGCACCAUUUCGCUGCCAGUGAAGAAAUGAGCAAAGAAAAUCUGGGCCAGGCAAGCAUCAAAAGAAAUAGUCUUGCGCUCAACCAGAAAGUCUGUAAUCAUUUUAAGGGUA [A60G G83A], the self-cleavage was 1.3. Work on GUAAACGGUCAUAGGCCAUGGAAACUAGGAGCACCAUUUCGCUGCCAGUGAAGAAAUGAACAAAGAUAAUCUGGGCCAGGCAGGCAUCAAAAGAAAUAGUCUUGCGCUCAACCAGAAAGUCUGUAAUCAUUUUAAGGGUA [U3A A67U] yielded a self-cleavage of 0.46. For GUUAACGGUCAUAGGCCAAGGAAACUAGGAGCACCGUUUCGCUGCCAGUGAAGAAAUGAACAAAGAAAAUCUGGGCCAGGCAGGCAUCAAAAGAAAUAGUCUUGCGCUCAACCAGAAAGUCUGUAAUCAUUUUAAGGGUA [U19A A36G], the self-cleavage was 1.19. In the case of GUUAACGGUCAUAGGCCAUGGAAACUAGGAGCACCAUUUCGCUGCCAGUGAGGAAAUGAACAAAGAAAAUCUGGGCCAGGCAGGCAUCAAAAGAAAUAGUCUUGCGCUCAACCAGAGAGUCUGUAAUCAUUUUAAGGGUA [A52G A117G], the self-cleavage is reported as 1.48. Variant GUUAACGGUCAUAGGCCAUGGAAACUAGGAGCACCAUUUCGCUGCCAGUGAAGAAAUGAACAACGAAAAUCUGGGCCAGGCAGGCAUCAAAAGAAGUAGUCUUGCGCUCAACCAGAAAGUCUGUAAUCAUUUUAAGGGUA [A64C A96G] has a self-cleavage of 1.27. With GUUAACGGUCAUAGGCCAUGGAAACUAGGAGCACCAUUUCGCUGCCAGUGAAGAAGUGAACAAAGAAAAUCUGGGCCAGGCAGGCAUCAAAAGAAAUAGUCUUGCGCUCAACCAAAAAGUCUGUAAUCAUUUUAAGGGUA [A56G G115A] the self-cleavage was 0.11.
